Experimental data taken from patent US20230265151A1, “GIP/GLP1 CO-AGONIST COMPOUNDS” (priority 2020, published 2023).

T1: hGIPR (Homo sapiens, UniProt P48546)
T1 construct: expressed in transfected cells
T1 sequence (P48546 22-466): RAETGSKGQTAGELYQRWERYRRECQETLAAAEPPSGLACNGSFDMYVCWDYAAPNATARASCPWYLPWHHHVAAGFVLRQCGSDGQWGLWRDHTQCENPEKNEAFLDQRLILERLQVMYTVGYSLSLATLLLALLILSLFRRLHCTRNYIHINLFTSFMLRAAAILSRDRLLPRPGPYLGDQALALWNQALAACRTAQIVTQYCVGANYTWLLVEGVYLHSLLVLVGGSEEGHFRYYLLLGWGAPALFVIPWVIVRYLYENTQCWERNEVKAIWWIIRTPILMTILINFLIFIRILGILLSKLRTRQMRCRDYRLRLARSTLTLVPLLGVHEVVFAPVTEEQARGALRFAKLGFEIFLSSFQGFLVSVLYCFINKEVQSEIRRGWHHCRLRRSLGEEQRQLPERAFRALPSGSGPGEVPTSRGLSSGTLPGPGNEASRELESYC

T2: human GIP receptor (human, UniProt P48546 22-466)
T2 sequence (looked up): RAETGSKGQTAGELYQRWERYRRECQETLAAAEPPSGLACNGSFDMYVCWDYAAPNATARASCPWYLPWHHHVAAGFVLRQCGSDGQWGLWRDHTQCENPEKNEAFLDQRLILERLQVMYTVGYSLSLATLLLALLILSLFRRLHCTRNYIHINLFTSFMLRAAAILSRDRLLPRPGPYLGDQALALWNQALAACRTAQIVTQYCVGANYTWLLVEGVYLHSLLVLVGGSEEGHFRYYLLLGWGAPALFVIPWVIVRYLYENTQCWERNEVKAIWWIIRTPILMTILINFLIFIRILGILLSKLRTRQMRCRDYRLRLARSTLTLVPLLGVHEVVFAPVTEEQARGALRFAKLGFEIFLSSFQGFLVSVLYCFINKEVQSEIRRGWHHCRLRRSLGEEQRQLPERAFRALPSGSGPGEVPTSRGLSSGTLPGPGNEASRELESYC


Columns and labels:
[1] = biological target: T3, human GLP-1 receptor (hGLP-1R) (Homo sapiens, UniProt P43220); experiment: [125I]-GLP-1 binding, SPA with membranes of HEK293 cells expressing hGLP-1R; conditions: human GLP-1R; geometric mean (SEM, n); read-out: Binding Affinity Ki, nM (SEM, n) hGLP-1R
T3 construct: expressed in transfected cells; crude membranes
Method: Two methods are used for the preparation of crude cell membranes.
Method 1: Frozen cell pellets are lysed on ice in hypotonic buffer containing 50 mM Tris HCl, pH 7.5, and Roche Complete™ Protease Inhibitors with EDTA. […] The homogenate is centrifuged at 4° C. at 1100 × g for 10 minutes. The supernatant is collected and stored on ice while the pellets are resuspended in homogenization buffer and rehomogenized as described above. The homogenate is centrifuged at 1100 × g for 10 minutes. The second supernatant is combined with the first supernatant and centrifuged at 35000 × g for 1 hour at 4° C. The resulting membrane pellet is resuspended in homogenization buffer containing protease inhibitors at approximately 1 to 3 mg/mL, quick frozen in liquid nitrogen and stored as aliquots in a -80° C. freezer until use.
The homogenate is centrifuged at 4° C. at 1800 × g for 15 minutes. The supernatant is collected and stored on ice while the pellets are resuspended in homogenization buffer (without DNAse I) and rehomogenized as described above. The homogenate is centrifuged at 1800 × g for 15 minutes. The second supernatant is combined with the first supernatant and centrifuged an additional time at 1800 × g for 15 minutes. The overall supernatant is then centrifuged at 25000 × g for 30 minutes at 4° C. The resulting membrane pellet is resuspended in homogenization buffer (without DNAse I) containing protease inhibitors at approximately 1 to 3 mg/mL and stored as aliquots in a -80° C. freezer until use.
The human GLP-1 receptor binding assay is performed using an SPA format with WGA beads. The binding buffer contains 25 mM HEPES, pH 7.4, 2.5 mM CaCl2, 1 mM MgCl2, 0.1% (w/v) bacitracin, 0.003% (w/v) TWEEN®-20, and Roche Complete™ Protease Inhibitors without EDTA.
Raw CPM data for concentration curves of peptides, Gcg, GLP-1, or GIP are converted to percent inhibition by subtracting nonspecific binding (binding in the presence of excess unlabeled Gcg, GLP-1, or GIP, respectively) from the individual CPM values and dividing by the total binding signal, also corrected by subtracting nonspecific binding. Data are analyzed using four-parameter (curve maximum, curve minimum, IC50, Hill slope) nonlinear regression routines (Genedata Screener, version 12.0.4, Genedata AG, Basal, Switzerland). […] Values for Ki are reported as the geometric mean, with error expressed as the standard error of the mean (SEM) and n is equal to the number of independent replicates (determined in assays performed on different days). Geometric Means are calculated as follows: […]
The Ki Ratio (Ki for native control peptide/Ki for test compound) at each receptor and each species is calculated. The Ki Ratio is a rapid indication of the apparent affinity of a peptide compared to the native control peptide.
n=⅟x means that only one value out of the total number of replicates (x) is used to express the mean. SEM is only calculated when n=2 or greater non-qualified results exist. Means are expressed as GeoMetric means with the standard error of the mean (SEM) and the number of replicates (n) indicated in parenthesis.

hGIPR = biological target: T1, hGIPR; experiment: Functional cAMP formation (HTRF) in HEK-293 clonal cells expressing hGIPR, 0.1% bovine casein, without or with 1.0% human serum albumin; assay type: cell-based; conditions: 0.1% bovine casein and 1.0% human serum albumin, 37° C.; geometric mean; read-out: hGIPR EC50, nM (SEM, n)
In short: (§1)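 Cells were stimulated with peptide for 30 min at 37° C, then intracellular cAMP was measured by competitive HTRF (665/620 nm ratio) and converted to nM using a cAMP standard curve. Relative EC50 and Emax came from four-parameter logistic fits of percent maximal response against peptide concentration.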

hGLP-1R = hGLP-1R (Homo sapiens, UniProt P43220); experiment: Functional cAMP formation (HTRF) in HEK-293 clonal cells expressing hGLP-1R, 0.1% bovine casein, without or with 1.0% human serum albumin; assay type: cell-based; parameters: expressed in transfected cells; conditions: 37° C.
In short: as §1

human GIP receptor = biological target: T2, human GIP receptor; experiment: cell-based or functional assay
human GLP-1 receptor = human GLP-1 receptor (human, UniProt P43220 24-463); experiment: cell-based or functional assay
human glucagon receptor = human glucagon receptor (human, UniProt P47871 26-477); experiment: cell-based or functional assay

Sequence of hGLP-1R (P43220 24-463): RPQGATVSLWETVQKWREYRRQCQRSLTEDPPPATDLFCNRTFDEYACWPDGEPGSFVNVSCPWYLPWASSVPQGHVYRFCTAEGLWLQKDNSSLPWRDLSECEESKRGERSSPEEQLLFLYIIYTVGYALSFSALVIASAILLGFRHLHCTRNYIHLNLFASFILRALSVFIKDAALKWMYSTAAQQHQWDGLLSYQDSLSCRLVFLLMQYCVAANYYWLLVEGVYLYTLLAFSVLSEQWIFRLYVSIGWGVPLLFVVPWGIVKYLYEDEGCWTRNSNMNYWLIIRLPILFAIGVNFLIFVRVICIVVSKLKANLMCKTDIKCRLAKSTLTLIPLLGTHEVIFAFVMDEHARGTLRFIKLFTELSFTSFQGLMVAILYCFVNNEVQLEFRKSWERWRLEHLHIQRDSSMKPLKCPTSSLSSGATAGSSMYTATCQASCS
T3 sequence (P43220 24-463): as above

Molecule | Ki [1] | EC50 (hGIPR) | EC50 (hGLP-1R; 0.1% bovine casein and 1.0% human serum albumin, geometric mean, read-out: hGLP-1R EC50, nM (SEM, n)) | Emax (hGLP-1R; HEK293, percent of maximal response to GLP-1(7-36)NH2, 0.1% bovine casein, arithmetic mean, read-out: hGLP-1R Emax, % ± SEM) | cAMP EC50 (1.0% HSA) (human GIP receptor) | cAMP Emax (1.0% HSA) (human GIP receptor) | cAMP EC50 (1.0% HSA) (human GLP-1 receptor) | cAMP Emax (1.0% HSA) (human GLP-1 receptor) | cAMP EC50 (1.0% HSA) (human glucagon receptor)
CCCCCCCCCCCCCCCC(=O)N[C@@H](CCC(=O)NCCOCCOCC(=O)NCCOCCOCC(=O)NCCCC[C@H](NC(=O)CNC(=O)CNC(=O)[C@H](CCC(=O)O)NC(=O)[C@@H](NC(=O)[C@H](CC(C)C)NC(=O)[C@](C)(Cc1ccc(O)cc1)NC(=O)[C@@H](CCC(=O)O)NC(=O)[C@@H](NC(=O)[C@H](Cc1ccccc1)NC(=O)[C@H](CCC(=O)O)NC(=O)C(C)(C)NC(=O)[C@H](CCC(N)=O)NC(=O)[C@H](C)NC(=O)[C@H](CCCCNC(=O)COCCOCCNC(=O)COCCOCCNC(=O)CC[C@H](NC(=O)CCCCCCCCCCCCCCC)C(=O)O)NC(=O)[C@H](CCCN)NC(=O)[C@H](CC(=O)O)NC(=O)[C@H](CC(C)C)NC(=O)[C@](C)(CC(C)C)NC(=O)[C@@H](NC(=O)[C@H](CO)NC(=O)[C@H](Cc1ccncc1)NC(=O)[C@H](CC(=O)O)NC(=O)[C@H](CO)NC(=O)[C@@H](NC(=O)[C@](C)(Cc1ccccc1F)NC(=O)[C@@H](NC(=O)CNC(=O)[C@H](CCC(=O)O)NC(=O)C(C)(C)NC(=O)[C@@H](N)Cc1ccc(O)cc1)[C@@H](C)O)[C@@H](C)O)[C@@H](C)CC)[C@@H](C)CC)[C@@H](C)CC)C(=O)N[C@@H](CO)C(=O)N[C@@H](CO)C(=O)NCC(=O)N[C@@H](C)C(=O)N1CCC[C@H]1C(=O)N1CCC[C@H]1C(=O)N1CCC[C@H]1C(=O)N[C@@H](CO)C(N)=O)C(=O)O [Example 7] | 0.362 nM | 0.566 nM | 2.74 nM | 95.4 ± 5.03% | – | – | – | – | –
YXEGTXTSDXXIXLDXIAQXKFIKXLIEGGPSSGAPPPS (Aib2, αMeF(2F)6, 4Pal10, αMeS11, αMeL13, Orn16, Aib20, αMeY25; acylated K21, K24 (groups as in name); C-terminal amide) | – | – | – | – | 0.925 nM | 91.3% | 14.8 nM | 107% | > 9950 nM
YXEGTXTSDXXIXLDXIAQXKFIXXLIKGGPSSGAPPPS (Aib2, αMeF(2F)6, 4Pal10, αMeS11, αMeL13, Orn16, Aib20, D-Glu24, αMeY25; acylated K21, K28 (groups as in name); C-terminal amide) | – | – | – | – | 7.84 nM | 62.7% | 87.8 nM | 118% | > 9950 nM
YXEGTXTSDXXIXLDXIAQXEFIKXLIKGGPSSGAPPPS (Aib2, αMeF(2F)6, 4Pal10, αMeS11, αMeL13, Orn16, Aib20, αMeY25; acylated K24, K28 (groups as in name); C-terminal amide) | – | – | – | – | 5.31 nM | 63.4% | 32.3 nM | 117% | > 9950 nM
YXEGTXTSDXSIXLDXKAQXXFIXXLIEGGKSSGAPPPS (Aib2, αMeF(2F)6, 4Pal10, αMeL13, Orn16, Aib20, 4Pal21, D-Glu24, αMeY25; acylated K17, K31 (groups as in name); C-terminal amide) | – | – | – | – | 0.718 nM | 89.6% | 36 nM | – | > 9950 nM
YXEGTXTSDXXIXLDXKAQXEFIXXLIEGGKSSGAPPPS (Aib2, αMeF(2F)6, 4Pal10, Ac5c11, αMeL13, Orn16, Aib20, D-Glu24, αMeY25; acylated K17, K31 (groups as in name); C-terminal amide) | – | – | – | – | 2.16 nM | 64.5% | 94.2 nM | 99% | > 9950 nM
